Where no end group is shown, it is not given here.
Legend:
[1] = target: T1, SARS-CoV-2 RBD (High Five insect cells, 6x His-tag) (SARS-CoV-2, UniProt P0DTC2); assay: SPR; conditions: both partners purified
T1 construct: source: High Five insect cells, purified (HisExcel, SEC)

[2] = target: T2, SARS-CoV-2 S1S2-His (monomeric S1S2 spike protein) (SARS-CoV-2, UniProt P0DTC2 14-1213); assay: SPR; conditions: both partners purified
T2 construct: source: High Five insect cells, purified (HisExcel, SEC)

B1: CVRBDL-3 (peptide)
peptide: HDFWWEYDKKNDTWTRRRR-NH2
notes: also called CVRDBL-3; CVRBD-3; source: synthetic peptide; bought: CASLO
stoichiometry N [1]: 1 | stoichiometry N [2]: 1

Reference: publication PMC8962251 (Biomedicines, 2022)
